Consider 2 molecules from PMC1201339.

What all share (assay): filter binding
One data set has as its target T1, Cdc6-1 FL (Methanothermobacter thermautotrophicus, UniProt O27463 1-382).
T1 sequence: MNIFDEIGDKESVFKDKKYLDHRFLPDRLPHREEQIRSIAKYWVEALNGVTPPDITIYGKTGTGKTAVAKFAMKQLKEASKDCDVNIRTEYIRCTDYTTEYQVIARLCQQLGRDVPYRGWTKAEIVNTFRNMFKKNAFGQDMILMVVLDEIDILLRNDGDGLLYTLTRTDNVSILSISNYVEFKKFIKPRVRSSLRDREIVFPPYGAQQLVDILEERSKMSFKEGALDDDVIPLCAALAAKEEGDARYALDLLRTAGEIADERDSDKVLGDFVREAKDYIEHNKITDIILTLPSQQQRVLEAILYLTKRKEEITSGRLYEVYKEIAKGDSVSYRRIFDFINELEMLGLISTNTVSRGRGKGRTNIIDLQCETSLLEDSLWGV

A further data set concerns the target T2, Cdc6-2 FL (Methanothermobacter thermautotrophicus, UniProt O27636 1-379).
T2 sequence: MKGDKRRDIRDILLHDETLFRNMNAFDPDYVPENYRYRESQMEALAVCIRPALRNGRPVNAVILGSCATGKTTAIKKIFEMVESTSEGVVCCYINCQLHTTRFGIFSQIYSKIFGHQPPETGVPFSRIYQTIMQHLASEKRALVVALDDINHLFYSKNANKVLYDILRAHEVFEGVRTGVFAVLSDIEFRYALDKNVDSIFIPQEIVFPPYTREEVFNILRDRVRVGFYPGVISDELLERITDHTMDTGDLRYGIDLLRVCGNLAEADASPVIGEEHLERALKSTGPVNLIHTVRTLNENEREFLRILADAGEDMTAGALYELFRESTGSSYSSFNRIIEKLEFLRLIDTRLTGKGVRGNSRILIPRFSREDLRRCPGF

The next data set concerns the target T3, Cdc6-1 WH (Methanothermobacter thermautotrophicus, UniProt O27463 287-382).
T3 sequence: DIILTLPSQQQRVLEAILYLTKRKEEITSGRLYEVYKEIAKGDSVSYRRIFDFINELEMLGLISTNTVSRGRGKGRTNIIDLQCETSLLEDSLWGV

The target of a further data set is T4, Cdc6-2 WH (Methanothermobacter thermautotrophicus, UniProt O27636 292-379).
T4 sequence: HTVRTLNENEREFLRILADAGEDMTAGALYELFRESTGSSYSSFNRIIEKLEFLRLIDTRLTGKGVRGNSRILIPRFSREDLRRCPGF

With TACATATGTACATGGGTACATATGTACATGGGTACATATGTACAT (ssDNA) [MR163 45mer ssDNA], the binding result is given as “no binding” in the data set with Cdc6-1 FL and “binds” in the data set with Cdc6-2 FL.

B1: MR163/MR164 45 bp dsDNA (dsDNA)
DNA 1: TACATATGTACATGGGTACATATGTACATGGGTACATATGTACAT
DNA 2: ATGTACATATGTACCCATGTACATATGTACCCATGTACATATGTA
Consider B1, for which the binding result with Cdc6-2 FL is recorded as “binds”; with Cdc6-1 WH, “no binding”; with Cdc6-2 WH, “no binding”.
